Data as given in paper PMC9482650, “Quantitative fragmentomics allow affinity mapping of interactomes” (Nature Communications, 2022).
Positions count from the first letter of the chain named.

T1: DLG3_1, Q92796
T1 sequence (Q92796 125-227, limits assumed, looked up): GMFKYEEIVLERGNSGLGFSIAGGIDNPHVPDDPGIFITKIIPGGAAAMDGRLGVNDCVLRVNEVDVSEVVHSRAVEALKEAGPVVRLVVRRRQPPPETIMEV

T2: GRIP1_5, Q9Y3R0
T2 sequence (Q9Y3R0 568-668, limits assumed, looked up): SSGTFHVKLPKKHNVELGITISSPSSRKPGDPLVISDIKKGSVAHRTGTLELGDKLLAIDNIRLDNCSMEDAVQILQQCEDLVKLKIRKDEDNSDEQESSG

T3: SYNJ2BP, P57105
T3 sequence (P57105 8-110, limits assumed, looked up): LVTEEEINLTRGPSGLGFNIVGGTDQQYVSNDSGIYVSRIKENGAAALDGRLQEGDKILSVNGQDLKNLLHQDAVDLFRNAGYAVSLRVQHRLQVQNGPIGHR

T4: APBA1_2, Q02410
T4 sequence (Q02410 742-832, limits assumed, looked up): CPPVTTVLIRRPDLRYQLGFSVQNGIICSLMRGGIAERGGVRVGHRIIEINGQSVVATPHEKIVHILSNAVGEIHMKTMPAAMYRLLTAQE

T5: TJP3_3, O95049
T5 sequence (O95049 375-456, limits assumed, looked up): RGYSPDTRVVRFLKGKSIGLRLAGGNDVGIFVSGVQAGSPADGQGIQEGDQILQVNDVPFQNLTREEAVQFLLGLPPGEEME

T6: LIN7A, O14910
T6 sequence (O14910 103-200, limits assumed, looked up): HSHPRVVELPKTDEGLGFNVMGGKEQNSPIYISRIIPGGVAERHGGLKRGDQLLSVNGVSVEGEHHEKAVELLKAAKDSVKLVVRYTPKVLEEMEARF

T7: PARD3B_1, Q8TEW8
T7 sequence (Q8TEW8 196-299, limits assumed, looked up): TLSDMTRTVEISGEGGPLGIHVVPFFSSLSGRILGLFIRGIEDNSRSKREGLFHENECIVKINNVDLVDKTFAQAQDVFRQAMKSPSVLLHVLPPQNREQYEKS

T8: SHANK1, Q9Y566
T8 sequence (Q9Y566 658-767, limits assumed, looked up): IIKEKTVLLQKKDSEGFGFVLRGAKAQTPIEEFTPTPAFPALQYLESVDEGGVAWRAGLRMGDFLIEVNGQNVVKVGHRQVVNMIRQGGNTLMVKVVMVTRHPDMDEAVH

T9: RADIL, Q96JH8
T9 sequence (Q96JH8 971-1071, limits assumed, looked up): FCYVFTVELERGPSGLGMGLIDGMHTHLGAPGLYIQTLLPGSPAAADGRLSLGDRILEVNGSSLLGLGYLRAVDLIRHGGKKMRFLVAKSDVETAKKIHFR

T10: LIN7C, Q9NUP9
T10 sequence (Q9NUP9 88-185, limits assumed, looked up): T6 sequence (O14910 103-200, limits assumed, looked up) with D13E, V20I, V40I, E42D, K77Q, D78G, S79K, A96S

B1: SDC2, P34741 (peptide)
chain: QKAPTKEFYA
B2: TECPR2, O15040 (peptide)
chain: EDLEDEWEVI

molecular target: GRIP2_3, Q9C0E4; experiment: holdup assay; parameters: key: below the threshold = too weak to quantify, mostly under pKd 3.1 to 4; details: plain residues with an end cap or a label only (N-terminal biotin on a linker: ado-ado)
Sequence (Q9C0E4 238-339): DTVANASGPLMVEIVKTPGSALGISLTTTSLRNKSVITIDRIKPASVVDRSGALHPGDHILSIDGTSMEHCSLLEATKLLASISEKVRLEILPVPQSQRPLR

| pKd | Binder |
| --- | --- |
| below the threshold | B1 |
| below the threshold | B2 |

molecular target: NHERF2_2, Q15599; experiment: holdup assay; parameters: key: below the threshold = too weak to quantify, mostly under pKd 3.1 to 4; details: plain residues with an end cap or a label only (N-terminal biotin on a linker: ado-ado)
Sequence (Q15599 142-238): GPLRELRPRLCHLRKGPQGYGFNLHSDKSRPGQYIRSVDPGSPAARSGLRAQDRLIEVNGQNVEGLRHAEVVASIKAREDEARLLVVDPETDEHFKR

| pKd | Binder |
| --- | --- |
| below the threshold | B1 |
| below the threshold | B2 |

molecular target: PTPN3, P26045; experiment: holdup assay; parameters: key: below the threshold = too weak to quantify, mostly under pKd 3.1 to 4; details: plain residues with an end cap or a label only (N-terminal biotin on a linker: ado-ado)
Sequence (P26045 505-587): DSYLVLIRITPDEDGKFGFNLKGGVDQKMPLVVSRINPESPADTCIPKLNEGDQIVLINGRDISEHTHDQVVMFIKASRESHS

| pKd | Binder |
| --- | --- |
| 4.2 | B1 |
| below the threshold | B2 |

molecular target: MAGI2_5, Q86UL8; experiment: holdup assay; parameters: key: below the threshold = too weak to quantify, mostly under pKd 3.1 to 4; details: plain residues with an end cap or a label only (N-terminal biotin on a linker: ado-ado)
Sequence (Q86UL8 915-1017): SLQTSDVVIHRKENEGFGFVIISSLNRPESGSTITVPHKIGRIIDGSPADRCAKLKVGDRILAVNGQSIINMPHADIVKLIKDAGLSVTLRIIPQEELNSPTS

| pKd | Binder |
| --- | --- |
| below the threshold | B1 |
| below the threshold | B2 |

molecular target: T1, DLG3_1, Q92796; experiment: holdup assay; parameters: key: below the threshold = too weak to quantify, mostly under pKd 3.1 to 4; details: plain residues with an end cap or a label only (N-terminal biotin on a linker: ado-ado)

| pKd | Binder |
| --- | --- |
| below the threshold | B1 |
| below the threshold | B2 |

molecular target: T2, GRIP1_5, Q9Y3R0; experiment: holdup assay; parameters: key: below the threshold = too weak to quantify, mostly under pKd 3.1 to 4; details: plain residues with an end cap or a label only (N-terminal biotin on a linker: ado-ado)

| pKd | Binder |
| --- | --- |
| below the threshold | B1 |
| below the threshold | B2 |

molecular target: T3, SYNJ2BP, P57105; experiment: holdup assay; parameters: key: below the threshold = too weak to quantify, mostly under pKd 3.1 to 4; details: plain residues with an end cap or a label only (N-terminal biotin on a linker: ado-ado)

| pKd | Binder |
| --- | --- |
| below the threshold | B1 |
| below the threshold | B2 |

molecular target: T4, APBA1_2, Q02410; experiment: holdup assay; parameters: key: below the threshold = too weak to quantify, mostly under pKd 3.1 to 4; details: plain residues with an end cap or a label only (N-terminal biotin on a linker: ado-ado)

| pKd | Binder |
| --- | --- |
| below the threshold | B1 |
| below the threshold | B2 |

molecular target: T5, TJP3_3, O95049; experiment: holdup assay; parameters: key: below the threshold = too weak to quantify, mostly under pKd 3.1 to 4; details: plain residues with an end cap or a label only (N-terminal biotin on a linker: ado-ado)

| pKd | Binder |
| --- | --- |
| below the threshold | B1 |
| below the threshold | B2 |

molecular target: Inadl_2, Q8NI35; experiment: holdup assay; parameters: key: below the threshold = too weak to quantify, mostly under pKd 3.1 to 4; details: plain residues with an end cap or a label only (N-terminal biotin on a linker: ado-ado)
Sequence (Q8NI35 238-335): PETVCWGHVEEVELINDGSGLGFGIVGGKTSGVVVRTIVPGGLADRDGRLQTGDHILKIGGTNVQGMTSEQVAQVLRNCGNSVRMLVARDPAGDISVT

| pKd | Binder |
| --- | --- |
| below the threshold | B1 |
| below the threshold | B2 |

molecular target: DLG1_1, Q12959; experiment: holdup assay; parameters: key: below the threshold = too weak to quantify, mostly under pKd 3.1 to 4; details: plain residues with an end cap or a label only (N-terminal biotin on a linker: ado-ado)

| pKd | Binder |
| --- | --- |
| below the threshold | B1 |
| below the threshold | B2 |

molecular target: Inadl_1, Q8NI35; experiment: holdup assay; parameters: key: below the threshold = too weak to quantify, mostly under pKd 3.1 to 4; details: plain residues with an end cap or a label only (N-terminal biotin on a linker: ado-ado)
Sequence (Q8NI35 113-229): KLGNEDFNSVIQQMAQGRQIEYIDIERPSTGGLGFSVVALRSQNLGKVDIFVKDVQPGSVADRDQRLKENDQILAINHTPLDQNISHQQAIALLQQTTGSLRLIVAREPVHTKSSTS

| pKd | Binder |
| --- | --- |
| below the threshold | B1 |
| below the threshold | B2 |

molecular target: T6, LIN7A, O14910; experiment: holdup assay; parameters: key: below the threshold = too weak to quantify, mostly under pKd 3.1 to 4; details: plain residues with an end cap or a label only (N-terminal biotin on a linker: ado-ado)

| pKd | Binder |
| --- | --- |
| below the threshold | B1 |
| below the threshold | B2 |

molecular target: MAGI1_2, Q96QZ7; experiment: holdup assay; parameters: key: below the threshold = too weak to quantify, mostly under pKd 3.1 to 4; details: plain residues with an end cap or a label only (N-terminal biotin on a linker: ado-ado)
Sequence (Q96QZ7 456-580): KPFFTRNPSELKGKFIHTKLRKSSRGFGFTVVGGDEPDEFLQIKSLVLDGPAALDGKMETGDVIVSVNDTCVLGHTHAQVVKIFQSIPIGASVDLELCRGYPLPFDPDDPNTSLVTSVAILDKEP

| pKd | Binder |
| --- | --- |
| below the threshold | B1 |
| below the threshold | B2 |

molecular target: T7, PARD3B_1, Q8TEW8; experiment: holdup assay; parameters: key: below the threshold = too weak to quantify, mostly under pKd 3.1 to 4; details: plain residues with an end cap or a label only (N-terminal biotin on a linker: ado-ado)

| pKd | Binder |
| --- | --- |
| 4.39 | B1 |
| 4.3 | B2 |

molecular target: T8, SHANK1, Q9Y566; experiment: holdup assay; parameters: key: below the threshold = too weak to quantify, mostly under pKd 3.1 to 4; details: plain residues with an end cap or a label only (N-terminal biotin on a linker: ado-ado)

| pKd | Binder |
| --- | --- |
| 3.53 | B1 |
| below the threshold | B2 |

molecular target: DLG2_2, Q15700; experiment: holdup assay; parameters: key: below the threshold = too weak to quantify, mostly under pKd 3.1 to 4; details: plain residues with an end cap or a label only (N-terminal biotin on a linker: ado-ado)
Sequence (Q15700 189-283): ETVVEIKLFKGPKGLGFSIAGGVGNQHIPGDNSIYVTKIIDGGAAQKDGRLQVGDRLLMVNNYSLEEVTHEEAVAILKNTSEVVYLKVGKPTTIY

| pKd | Binder |
| --- | --- |
| below the threshold | B1 |
| below the threshold | B2 |

molecular target: Inadl_9, Q8NI35; experiment: holdup assay; parameters: key: below the threshold = too weak to quantify, mostly under pKd 3.1 to 4; details: plain residues with an end cap or a label only (N-terminal biotin on a linker: ado-ado)
Sequence (Q8NI35 1530-1615): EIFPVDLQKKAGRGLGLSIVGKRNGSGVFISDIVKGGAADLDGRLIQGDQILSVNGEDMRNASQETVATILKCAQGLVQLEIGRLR

| pKd | Binder |
| --- | --- |
| below the threshold | B1 |
| below the threshold | B2 |

molecular target: T9, RADIL, Q96JH8; experiment: holdup assay; parameters: key: below the threshold = too weak to quantify, mostly under pKd 3.1 to 4; details: plain residues with an end cap or a label only (N-terminal biotin on a linker: ado-ado)

| pKd | Binder |
| --- | --- |
| 3.51 | B1 |
| below the threshold | B2 |

molecular target: AHNAK1, Q09666; experiment: holdup assay; parameters: key: below the threshold = too weak to quantify, mostly under pKd 3.1 to 4; details: plain residues with an end cap or a label only (N-terminal biotin on a linker: ado-ado)
Sequence (Q09666 4-100): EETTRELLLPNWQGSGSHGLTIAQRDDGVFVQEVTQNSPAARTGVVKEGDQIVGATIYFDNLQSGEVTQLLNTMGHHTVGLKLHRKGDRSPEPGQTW

| pKd | Binder |
| --- | --- |
| below the threshold | B1 |
| below the threshold | B2 |

molecular target: MAGI1_1, Q96QZ7; experiment: holdup assay; parameters: key: below the threshold = too weak to quantify, mostly under pKd 3.1 to 4; details: plain residues with an end cap or a label only (N-terminal biotin on a linker: ado-ado)
Sequence (Q96QZ7 1-106): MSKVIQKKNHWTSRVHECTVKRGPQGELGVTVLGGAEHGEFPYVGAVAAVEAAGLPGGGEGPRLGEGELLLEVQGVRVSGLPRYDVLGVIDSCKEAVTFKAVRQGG

| pKd | Binder |
| --- | --- |
| below the threshold | B1 |
| below the threshold | B2 |

molecular target: T10, LIN7C, Q9NUP9; experiment: holdup assay; parameters: key: below the threshold = too weak to quantify, mostly under pKd 3.1 to 4; details: plain residues with an end cap or a label only (N-terminal biotin on a linker: ado-ado)

| pKd | Binder |
| --- | --- |
| below the threshold | B1 |
| below the threshold | B2 |

molecular target: HTRA2, O43464; experiment: holdup assay; parameters: key: below the threshold = too weak to quantify, mostly under pKd 3.1 to 4; details: plain residues with an end cap or a label only (N-terminal biotin on a linker: ado-ado)
Sequence (O43464 355-458): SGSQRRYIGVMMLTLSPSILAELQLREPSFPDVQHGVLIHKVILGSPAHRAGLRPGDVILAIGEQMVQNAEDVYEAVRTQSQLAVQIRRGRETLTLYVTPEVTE

| pKd | Binder |
| --- | --- |
| below the threshold | B1 |
| below the threshold | B2 |

molecular target: DLG4_2, P78352; experiment: holdup assay; parameters: key: below the threshold = too weak to quantify, mostly under pKd 3.1 to 4; details: plain residues with an end cap or a label only (N-terminal biotin on a linker: ado-ado)
Sequence (P78352 155-259): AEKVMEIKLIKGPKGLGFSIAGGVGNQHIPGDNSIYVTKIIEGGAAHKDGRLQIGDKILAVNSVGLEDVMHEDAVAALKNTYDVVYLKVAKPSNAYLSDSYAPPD

| pKd | Binder |
| --- | --- |
| below the threshold | B1 |
| below the threshold | B2 |

molecular target: MAST1, Q9Y2H9; experiment: holdup assay; parameters: key: below the threshold = too weak to quantify, mostly under pKd 3.1 to 4; details: plain residues with an end cap or a label only (N-terminal biotin on a linker: ado-ado)
Sequence (Q9Y2H9 962-1065): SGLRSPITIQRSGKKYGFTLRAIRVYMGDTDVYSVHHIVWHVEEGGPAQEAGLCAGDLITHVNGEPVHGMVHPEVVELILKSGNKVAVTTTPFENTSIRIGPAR

| pKd | Binder |
| --- | --- |
| below the threshold | B1 |
| 3.68 | B2 |

molecular target: GORASP1, Q9BQQ3; experiment: holdup assay; parameters: key: below the threshold = too weak to quantify, mostly under pKd 3.1 to 4; details: plain residues with an end cap or a label only (N-terminal biotin on a linker: ado-ado)
Sequence (Q9BQQ3 1-208): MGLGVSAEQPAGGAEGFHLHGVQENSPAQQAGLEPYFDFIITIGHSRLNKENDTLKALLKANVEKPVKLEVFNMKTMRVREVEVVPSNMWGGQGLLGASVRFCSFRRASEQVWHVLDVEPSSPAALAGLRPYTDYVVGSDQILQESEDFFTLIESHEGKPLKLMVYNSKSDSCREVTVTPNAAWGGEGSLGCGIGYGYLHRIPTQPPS

| pKd | Binder |
| --- | --- |
| 3.51 | B1 |
| 4.12 | B2 |

molecular target: PARD3_3, Q8TEW0; experiment: holdup assay; parameters: key: below the threshold = too weak to quantify, mostly under pKd 3.1 to 4; details: plain residues with an end cap or a label only (N-terminal biotin on a linker: ado-ado)
Sequence (Q8TEW0 582-685): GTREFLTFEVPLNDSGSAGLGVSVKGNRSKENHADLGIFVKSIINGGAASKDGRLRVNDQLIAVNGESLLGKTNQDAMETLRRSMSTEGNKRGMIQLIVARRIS

| pKd | Binder |
| --- | --- |
| below the threshold | B1 |
| 5.6 | B2 |
